Test results taken from article PMC12102759 (2025).

B1: PEX5 peptide 240-255 (Peroxisomal targeting signal 1 receptor), 16-mer library wild type / PEX14 Pex14 (PEX14 PEX14, residues 16-84) (parent complex)
chain 1: AEQWAAEFIQQQGTSD
chain 2: TPGSENVLPREPLIATAVKFLQNSRVRQSPLATRRAFLKKKGLTDEEIDMAFQQSGTAADEPSSLGPAT

Variants of: B1
Assay: proteomic peptide phage display deep mutational scan (ProP-PD DMS): M13 P8 16-mer library selected against immobilised GST-tagged bait for four days (rounds), NGS of the eluted pools per day and pseudo-replica; bait immobilised on MaxiSorp plates (10 µg), library pre-cleared on GST, 2 h binding at 4 °C, five washes; one round per day, days 1-4; value from days 2 and 3
In the case of chain 1 AEQWHAEFIQQQGTSD [chain 1 A5H], the screen value is reported as 0.0461 average fractional NGS count over selection days 2 and 3 (reads of this peptide / all reads for the bait, averaged over …. With chain 1 AEQWEAEFIQQQGTSD [chain 1 A5E] the screen value was 0.0005 average fractional NGS count over selection days 2 and 3 (reads of this peptide / all reads for the bait, averaged over …. In the case of chain 1 AEQWRAEFIQQQGTSD [chain 1 A5R], the screen value is reported as 0.00499 average fractional NGS count over selection days 2 and 3 (reads of this peptide / all reads for the bait, averaged over …. With chain 1 AEQWNAEFIQQQGTSD [chain 1 A5N] the screen value was 0.00753 average fractional NGS count over selection days 2 and 3 (reads of this peptide / all reads for the bait, averaged over …. For chain 1 AEQWAAEFIQQSGTSD [chain 1 Q12S], the screen value was 0.00474 average fractional NGS count over selection days 2 and 3 (reads of this peptide / all reads for the bait, averaged over …. chain 1 AEQWAAEFIQQVGTSD [chain 1 Q12V] was tested, and the screen value was 0.0011 average fractional NGS count over selection days 2 and 3 (reads of this peptide / all reads for the bait, averaged over …. For chain 1 AEQWAAEFIQQDGTSD [chain 1 Q12D], the screen value was 0.00045 average fractional NGS count over selection days 2 and 3 (reads of this peptide / all reads for the bait, averaged over …. chain 1 AEQWAAEFIQQYGTSD [chain 1 Q12Y] was tested, and the screen value was 0.00103 average fractional NGS count over selection days 2 and 3 (reads of this peptide / all reads for the bait, averaged over …. chain 1 AEQWAAEFIQQLGTSD [chain 1 Q12L] was tested, and the screen value was 0.00232 average fractional NGS count over selection days 2 and 3 (reads of this peptide / all reads for the bait, averaged over …. chain 1 AEQWAAKFIQQQGTSD [chain 1 E7K] was tested, and the screen value was 0.000488 average fractional NGS count over selection days 2 and 3 (reads of this peptide / all reads for the bait, averaged over …. With chain 1 AEQWAAWFIQQQGTSD [chain 1 E7W] the screen value was 0.00666 average fractional NGS count over selection days 2 and 3 (reads of this peptide / all reads for the bait, averaged over …. chain 1 AEQWAAIFIQQQGTSD [chain 1 E7I] was tested, and the screen value was 0.000858 average fractional NGS count over selection days 2 and 3 (reads of this peptide / all reads for the bait, averaged over …. With chain 1 AEQWAAQFIQQQGTSD [chain 1 E7Q] the screen value was 0.00112 average fractional NGS count over selection days 2 and 3 (reads of this peptide / all reads for the bait, averaged over …. With chain 1 AEQWAALFIQQQGTSD [chain 1 E7L] the screen value was 0.0199 average fractional NGS count over selection days 2 and 3 (reads of this peptide / all reads for the bait, averaged over …. chain 1 AEQWAAEFIQQQGTGD [chain 1 S15G] was tested, and the screen value was 0.00221 average fractional NGS count over selection days 2 and 3 (reads of this peptide / all reads for the bait, averaged over …. With chain 1 AEQWAAEFIQQQGTTD [chain 1 S15T] the screen value was 0.00362 average fractional NGS count over selection days 2 and 3 (reads of this peptide / all reads for the bait, averaged over …. For chain 1 AEQWAAEFIQQQGTLD [chain 1 S15L], the screen value was 0.00083 average fractional NGS count over selection days 2 and 3 (reads of this peptide / all reads for the bait, averaged over …. chain 1 AEQWAAEFIQQQGTRD [chain 1 S15R] was tested, and the screen value was 0.00217 average fractional NGS count over selection days 2 and 3 (reads of this peptide / all reads for the bait, averaged over …. For chain 1 AEQWAAEFHQQQGTSD [chain 1 I9H], the screen value was 0.0279 average fractional NGS count over selection days 2 and 3 (reads of this peptide / all reads for the bait, averaged over …. With chain 1 AEQWAAEFYQQQGTSD [chain 1 I9Y] the screen value was 0.0023 average fractional NGS count over selection days 2 and 3 (reads of this peptide / all reads for the bait, averaged over …. For chain 1 AEQWAAEFDQQQGTSD [chain 1 I9D], the screen value was 0.000867 average fractional NGS count over selection days 2 and 3 (reads of this peptide / all reads for the bait, averaged over …. For chain 1 AEQWAAEFTQQQGTSD [chain 1 I9T], the screen value was 0.000404 average fractional NGS count over selection days 2 and 3 (reads of this peptide / all reads for the bait, averaged over …. With chain 1 AEQWAAEFRQQQGTSD [chain 1 I9R] the screen value was 0.00363 average fractional NGS count over selection days 2 and 3 (reads of this peptide / all reads for the bait, averaged over …. In the case of chain 1 AEQWAAEFMQQQGTSD [chain 1 I9M], the screen value is reported as 0.00443 average fractional NGS count over selection days 2 and 3 (reads of this peptide / all reads for the bait, averaged over …. With chain 1 ADQWAAEFIQQQGTSD [chain 1 E2D] the screen value was 0.00048 average fractional NGS count over selection days 2 and 3 (reads of this peptide / all reads for the bait, averaged over …. chain 1 ASQWAAEFIQQQGTSD [chain 1 E2S] was tested, and the screen value was 0.000804 average fractional NGS count over selection days 2 and 3 (reads of this peptide / all reads for the bait, averaged over …. chain 1 AYQWAAEFIQQQGTSD [chain 1 E2Y] was tested, and the screen value was 0.00378 average fractional NGS count over selection days 2 and 3 (reads of this peptide / all reads for the bait, averaged over …. In the case of chain 1 AEQWAAEFIQVQGTSD [chain 1 Q11V], the screen value is reported as 0.0012 average fractional NGS count over selection days 2 and 3 (reads of this peptide / all reads for the bait, averaged over …. In the case of chain 1 AEQWAAEFIQLQGTSD [chain 1 Q11L], the screen value is reported as 0.0026 average fractional NGS count over selection days 2 and 3 (reads of this peptide / all reads for the bait, averaged over …. For chain 1 AEQWAAEFIQGQGTSD [chain 1 Q11G], the screen value was 0.00455 average fractional NGS count over selection days 2 and 3 (reads of this peptide / all reads for the bait, averaged over …. For chain 1 AEQWAAEFIQWQGTSD [chain 1 Q11W], the screen value was 0.000954 average fractional NGS count over selection days 2 and 3 (reads of this peptide / all reads for the bait, averaged over …. chain 1 AEQWADEFIQQQGTSD [chain 1 A6D] was tested, and the screen value was 0.0111 average fractional NGS count over selection days 2 and 3 (reads of this peptide / all reads for the bait, averaged over …. chain 1 AEQWAIEFIQQQGTSD [chain 1 A6I] was tested, and the screen value was 0.00623 average fractional NGS count over selection days 2 and 3 (reads of this peptide / all reads for the bait, averaged over …. In the case of chain 1 AEQWAGEFIQQQGTSD [chain 1 A6G], the screen value is reported as 0.00471 average fractional NGS count over selection days 2 and 3 (reads of this peptide / all reads for the bait, averaged over …. With chain 1 AEQWAAEFIQQQYTSD [chain 1 G13Y] the screen value was 0.000307 average fractional NGS count over selection days 2 and 3 (reads of this peptide / all reads for the bait, averaged over …. For chain 1 AEQWAAEFIQQQTTSD [chain 1 G13T], the screen value was 0.000744 average fractional NGS count over selection days 2 and 3 (reads of this peptide / all reads for the bait, averaged over …. With chain 1 AEQWAAEFIQQQKTSD [chain 1 G13K] the screen value was 0.000992 average fractional NGS count over selection days 2 and 3 (reads of this peptide / all reads for the bait, averaged over …. For chain 1 AEQWAAEFIQQQMTSD [chain 1 G13M], the screen value was 0.000519 average fractional NGS count over selection days 2 and 3 (reads of this peptide / all reads for the bait, averaged over …. chain 1 AEQWAAEFIQQQATSD [chain 1 G13A] was tested, and the screen value was 0.00173 average fractional NGS count over selection days 2 and 3 (reads of this peptide / all reads for the bait, averaged over …. In the case of chain 1 AEQWAAEFIQQQQTSD [chain 1 G13Q], the screen value is reported as 0.000525 average fractional NGS count over selection days 2 and 3 (reads of this peptide / all reads for the bait, averaged over …. For chain 1 AEQWAAEFIQQQGNSD [chain 1 T14N], the screen value was 0.000434 average fractional NGS count over selection days 2 and 3 (reads of this peptide / all reads for the bait, averaged over …. chain 1 AEQWAAEFIQQQGESD [chain 1 T14E] was tested, and the screen value was 0.000967 average fractional NGS count over selection days 2 and 3 (reads of this peptide / all reads for the bait, averaged over …. For chain 1 AEQWAAEFIQQQGHSD [chain 1 T14H], the screen value was 0.00166 average fractional NGS count over selection days 2 and 3 (reads of this peptide / all reads for the bait, averaged over …. For chain 1 AEQWAAEFIQQQGQSD [chain 1 T14Q], the screen value was 0.000835 average fractional NGS count over selection days 2 and 3 (reads of this peptide / all reads for the bait, averaged over …. For chain 1 AEQWAAEFIQQQGWSD [chain 1 T14W], the screen value was 0.000366 average fractional NGS count over selection days 2 and 3 (reads of this peptide / all reads for the bait, averaged over …. In the case of chain 1 AEQWAAEFIQQQGPSD [chain 1 T14P], the screen value is reported as 0.00162 average fractional NGS count over selection days 2 and 3 (reads of this peptide / all reads for the bait, averaged over …. chain 1 AEQWAAEFIMQQGTSD [chain 1 Q10M] was tested, and the screen value was 0.00324 average fractional NGS count over selection days 2 and 3 (reads of this peptide / all reads for the bait, averaged over …. In the case of chain 1 AEQWAAEFILQQGTSD [chain 1 Q10L], the screen value is reported as 0.00121 average fractional NGS count over selection days 2 and 3 (reads of this peptide / all reads for the bait, averaged over …. With chain 1 AEQWAAEFINQQGTSD [chain 1 Q10N] the screen value was 0.00173 average fractional NGS count over selection days 2 and 3 (reads of this peptide / all reads for the bait, averaged over …. chain 1 AEQWAAEFITQQGTSD [chain 1 Q10T] was tested, and the screen value was 0.00279 average fractional NGS count over selection days 2 and 3 (reads of this peptide / all reads for the bait, averaged over …. With chain 1 AEQWAAEFIHQQGTSD [chain 1 Q10H] the screen value was 0.00189 average fractional NGS count over selection days 2 and 3 (reads of this peptide / all reads for the bait, averaged over …. With chain 1 HEQWAAEFIQQQGTSD [chain 1 A1H] the screen value was 0.0701 average fractional NGS count over selection days 2 and 3 (reads of this peptide / all reads for the bait, averaged over …. chain 1 PEQWAAEFIQQQGTSD [chain 1 A1P] was tested, and the screen value was 0.000938 average fractional NGS count over selection days 2 and 3 (reads of this peptide / all reads for the bait, averaged over …. For chain 1 QEQWAAEFIQQQGTSD [chain 1 A1Q], the screen value was 0.00549 average fractional NGS count over selection days 2 and 3 (reads of this peptide / all reads for the bait, averaged over …. With chain 1 AEMWAAEFIQQQGTSD [chain 1 Q3M] the screen value was 0.002 average fractional NGS count over selection days 2 and 3 (reads of this peptide / all reads for the bait, averaged over …. In the case of chain 1 AEWWAAEFIQQQGTSD [chain 1 Q3W], the screen value is reported as 0.00112 average fractional NGS count over selection days 2 and 3 (reads of this peptide / all reads for the bait, averaged over ….
